Test results: US12545899B2, “Luciferase enzymes for use with thermostable luciferins in bioluminescent assays” (Promega Corporation, priority 2018, dated 2026)

Assays:
Assay type in all cases: biochemical
[1] = Kinetic analysis of thermostable variants with D/L-luciferin (Tables 13, 14); settings: 2 mM ATP
From the text: (§1) Tables 13 and 14 include representative results of kinetic analysis of the thermostable variants with D/L luciferin, CS0333, and CS0280. The panel of enzyme variants highlight amino acid substitutions that further improve upon MK0137 in maximum luminescence (Vmax) or Km in different buffers with the different substrates tested (D/L-luciferin, CS0333, and CS0280). In particular, enzyme variants MK0151 and MK153 show improvements relative to MK0137 across multiple buffers with multiple substrates.

[2] = Luminescence at 1 mM D/L-luciferin (Table 11); settings: 1 mM substrate, 1 mM ATP
From the text: (§2) Tables 10 and 11 include representative results of kinetic analysis of the thermostable variants with D/L luciferin, CS0333, and CS0280. […] MK0135 and MK0137 have amino acid substitutions that improve thermostability relative to MK0133 and MK0134, respectively, while retaining activity on the luciferin analogs CS0333 and CS0280.

[3] = Kinetic analysis of thermostable variants with CS0280 (Tables 13, 14); settings: 2 mM ATP
From the text: as §1

[4] = Luminescence at 1 mM CS0333 (Table 11); settings: 1 mM substrate, 1 mM ATP
From the text: as §2

[5] = Kinetic analysis of thermostable variants with CS0333 (Tables 13, 14); settings: 2 mM ATP
From the text: as §1

[6] = Luminescence at 1 mM CS0280 (Table 11); settings: 1 mM substrate, 1 mM ATP
From the text: as §2

Row | Molecule | Km ([1]; BrightGlo Buffer) | Vmax (RLU) ([1]; BrightGlo Buffer) | Km ([1]; Detection Reagent Buffer) | Vmax (RLU) ([1]; Detection Reagent Buffer) | Vmax (RLU) D/L-luciferin BrightGlo Buffer [2] | Vmax (RLU) D/L-luciferin Detection Reagent Buffer [2] | Km ([3]; BrightGlo Buffer) | Vmax (RLU) ([3]; BrightGlo Buffer) | Km ([3]; Detection Reagent Buffer) | Vmax (RLU) ([3]; Detection Reagent Buffer) | Vmax (RLU) CS0333 BrightGlo Buffer [4] | Vmax (RLU) CS0333 Detection Reagent Buffer [4] | Km ([5]; BrightGlo Buffer) | Vmax (RLU) ([5]; BrightGlo Buffer) | Km ([5]; Detection Reagent Buffer) | Vmax (RLU) ([5]; Detection Reagent Buffer) | Vmax (RLU) CS0280 BrightGlo Buffer [6] | Vmax (RLU) CS0280 Detection Reagent Buffer [6]
1 | MK0149: SEQ ID NO: 115; H244W+S193A+N228D+L305F+S306P+I109V+C38R+F55I+Y108F+A316W+Y339M+T342S+V348I+C257R+T284A+T289S+L437R (protein) MADKNILYGPEPFYPLEDGTAGEQMFDALSRYAAIPGRIALTNAHTKENVLYEEILKLSCRLAESFKKYGLKQNDTIAVCSENSLQFFLPVIASLYLGIIVAPVNDKFVERELIHSLGIVKPRIVFCSKNTFQKVLNVKSKLKSIETIIILDLNEDLGGYQCLNNFISQNSDSNLDVKKFKPYSFNRDDQVAAIMFSSGTTGLPKGVMLTHKNIVARFSIAKDPTFGDAINPTSAILTVIPFHWGFGMMTTLGYFTRGFRVVLMHTFEEKLFLQSLQDYKVESALLVPSLMAFLAKSALVEKYDFPHLKEIASGGWPLSKEIGEMVKKRFKLNFVRQGMGLSETTSAILITPKGDAKPGSTGKIVPLHAVKVVDPTTGKILGPNEPGELYFKGPMIMKGYYNNEEATKAIIDNDGWLRSGDIAYYDNDGHFYIVDRRKSLIKYKGYQVAPAEIEGILLQHPYIVDAGVTGIPDEAAGELPAAGVVVQTGKYLNEQIVQDYVASQVSTAKWLRGGVKFLDEIPKGSTGKIDRKVLRQMLEKHTNGHHHHHHHH | 0.0482 µM | 351,895 RLU | 0.26 µM | 33,641 RLU | 416,355 RLU | 52,341 RLU | 5.6 µM | 652,464 RLU | 678 µM | 44,058 RLU | 1,433,640 RLU | 1,270,240 RLU | 4.89 µM | 1,336,251 RLU | 48.4 µM | 353,432 RLU | 1,368,890 RLU | 57,404 RLU
2 | MK0153: SEQ ID NO: 118; H244W+S193A+N228D+L305F+S306P+I109V+C38R+F55I+Y108F+A316W+Y339M+T342S+V348I+T289S+K353R+D435G+W510R (protein) MADKNILYGPEPFYPLEDGTAGEQMFDALSRYAAIPGRIALTNAHTKENVLYEEILKLSCRLAESFKKYGLKQNDTIAVCSENSLQFFLPVIASLYLGIIVAPVNDKFVERELIHSLGIVKPRIVFCSKNTFQKVLNVKSKLKSIETIIILDLNEDLGGYQCLNNFISQNSDSNLDVKKFKPYSFNRDDQVAAIMFSSGTTGLPKGVMLTHKNIVARFSIAKDPTFGDAINPTSAILTVIPFHWGFGMMTTLGYFTRGFRVVLMHTFEEKLFLQSLQDYKVESTLLVPSLMAFLAKSALVEKYDFPHLKEIATGGWPLSKEIGEMVKKRFKLNFVRQGMGLSETTSAILITPRGDAKPGSTGKIVPLHAVKVVDPTTGKILGPNEPGELYFKGPMIMKGYYNNEEATKAIIDNDGWLRSGDIAYYDNDGHFYIVDRLKSLIKYKGYQVAPAEIEGILLQHPYIVDAGVTGIPDEAAGELPAAGVVVQTGKYLNEQIVQDYVASQVSTAKWLRGGVKFLDEIPKGSTGKIDRKVLRQMLEKHTNGHHHHHHHH | 0.176 µM | 1,081,804 RLU | 0.435 µM | 75,581 RLU | 509,406 RLU | 78,859 RLU | 7.71 µM | 1,098,792 RLU | 474 µM | 88,269 RLU | 3,768,010 RLU | 2,570,070 RLU | 6.66 µM | 4,114,986 RLU | 22 µM | 822,270 RLU | 1,803,730 RLU | 90,671 RLU
3 | MK0154: SEQ ID NO: 119; H244W+S193A+N228D+L305F+S306P+I109V+C38R+F55I+Y108F+A316W+Y339M+T342S+V348I+C257R+T284A+T289S+S313T+K353R+D435G+L437R+W510R (protein) MADKNILYGPEPFYPLEDGTAGEQMFDALSRYAAIPGRIALTNAHTKENVLYEEILKLSCRLAESFKKYGLKQNDTIAVCSENSLQFFLPVIASLYLGIIVAPVNDKFVERELIHSLGIVKPRIVFCSKNTFQKVLNVKSKLKSIETIIILDLNEDLGGYQCLNNFISQNSDSNLDVKKFKPYSFNRDDQVAAIMFSSGTTGLPKGVMLTHKNIVARFSIAKDPTFGDAINPTSAILTVIPFHWGFGMMTTLGYFTCGFRVVLMHTFEEKLFLQSLQDYKVESALLVPSLMAFLAKSALVEKYDFPHLKEIATGGWPLSKEIGEMVKKRFKLNFVRQGMGLSETTSAILITPKGDAKPGSTGKIVPLHAVKVVDPTTGKILGPNEPGELYFKGPMIMKGYYNNEEATKAIIDNDGWLRSGDIAYYDNDGHFYIVDRLKSLIKYKGYQVAPAEIEGILLQHPYIVDAGVTGIPDEAAGELPAAGVVVQTGKYLNEQIVQDYVASQVSTAKRLRGGVKFLDEIPKGSTGKIDRKVLRQMLEKHTNGHHHHHHHH | 0.108 µM | 2,997,269 RLU | 0.356 µM | 342,134 RLU | 2,583,340 RLU |  | 41.7 µM | 449,576 RLU | 954 µM | 24,533 RLU | 2,374,950 RLU | 854,223 RLU | 10.6 µM | 1,706,369 RLU | 230 µM | 409,320 RLU | 809,566 RLU | 22,493 RLU
4 | MK0152: SEQ ID NO: 117; H244W+S193A+N228D+L305F+S306P+I109V+C38R+F55I+Y108F+A316W+Y339M+T342S+V348I+C257R+K353R+L437R+W510R (protein) MADKNILYGPEPFYPLEDGTAGEQMFDALSRYAAIPGRIALTNAHTKENVLYEEILKLSCRLAESFKKYGLKQNDTIAVCSENSLQFFLPVIASLYLGIIVAPVNDKFVERELIHSLGIVKPRIVFCSKNTFQKVLNVKSKLKSIETIIILDLNEDLGGYQCLNNFISQNSDSNLDVKKFKPYSFNRDDQVAAIMFSSGTTGLPKGVMLTHKNIVARFSIAKDPTFGDAINPTSAILTVIPFHWGFGMMTTLGYFTCGFRVVLMHTFEEKLFLQSLQDYKVESTLLVPSLMAFLAKSALVEKYDFPHLKEIASGGWPLSKEIGEMVKKRFKLNFVRQGMGLSETTSAILITPRGDAKPGSTGKIVPLHAVKVVDPTTGKILGPNEPGELYFKGPMIMKGYYNNEEATKAIIDNDGWLRSGDIAYYDNDGHFYIVGRLKSLIKYKGYQVAPAEIEGILLQHPYIVDAGVTGIPDEAAGELPAAGVVVQTGKYLNEQIVQDYVASQVSTAKRLRGGVKFLDEIPKGSTGKIDRKVLRQMLEKHTNGHHHHHHHH | 0.0583 µM | 1,055,203 RLU | 0.395 µM | 60,231 RLU | 954,983 RLU | 103,199 RLU | 5.74 µM | 330,383 RLU | 848 µM | 10,047 RLU | 405,859 RLU | 175,261 RLU | 4.09 µM | 519,457 RLU | 56.8 µM | 49,798 RLU | 484,293 RLU | 11,418 RLU
5 | MK0151: SEQ ID NO: 116; H244W+S193A+N228D+L305F+S306P+I109V+C38R+F55I+Y108F+A316W+Y339M+T342S+V348I+S313T+D435G+L437R (protein) MADKNILYGPEPFYPLEDGTAGEQMFDALSRYAAIPGRIALTNAHTKENVLYEEILKLSCRLAESFKKYGLKQNDTIAVCSENSLQFFLPVIASLYLGIIVAPVNDKFVERELIHSLGIVKPRIVFCSKNTFQKVLNVKSKLKSIETIIILDLNEDLGGYQCLNNFISQNSDSNLDVKKFKPYSFNRDDQVAAIMFSSGTTGLPKGVMLTHKNIVARFSIAKDPTFGDAINPTSAILTVIPFHWGFGMMTTLGYFTRGFRVVLMHTFEEKLFLQSLQDYKVESTLLVPTLMAFLAKSALVEKYDFPHLKEIASGGWPLSKEIGEMVKKRFKLNFVRQGMGLSETTSAILITPRGDAKPGSTGKIVPLHAVKVVDPTTGKILGPNEPGELYFKGPMIMKGYYNNEEATKAIIDNDGWLRSGDIAYYDNDGHFYIVDRRKSLIKYKGYQVAPAEIEGILLQHPYIVDAGVTGIPDEAAGELPAAGVVVQTGKYLNEQIVQDYVASQVSTAKRLRGGVKFLDEIPKGSTGKIDRKVLRQMLEKHTNGHHHHHHHH | 0.0834 µM | 924,955 RLU | 0.265 µM | 123,752 RLU | 1,074,780 RLU | 249,347 RLU | 4.88 µM | 534,004 RLU | 632 µM | 58,187 RLU | 8,608,150 RLU | 4,805,980 RLU | 6.45 µM | 4,586,290 RLU | 37.6 µM | 727,712 RLU | 1,490,130 RLU | 76,615 RLU
